Paper PMC5668364, “Structure and functional dynamics of the mitochondrial Fe/S cluster synthesis complex” (Nature Communications, 2017)
Read-outs that look alike come from different tables or passages of the source. Values belong to the molecule of their own block, whether it stands above or below them.

B3: Chaetomium thermophilum CtNfs1 (enzyme)
chain: MANLAPSVLRQASRLATRSSSSTSSLFAAAPRRAATLLSRRAAIAPATHAHPSRRASRSYVTDTKADNAQAQTEAAVRLDSQELEKAEKSVPSFEAQNGSTTHVSPMADILKGATRMGEGQRPIYLDMQATTPVDPRVLDAMLPYYVGIFGNPHSRTHAYGWETERAVEKAREHIAALIGADPKEIIFTSGATESNNMSIKGVARFFGRTGKKRHIITSQTEHKCVLDSCRHLQDEGYEVTYLPVNNKGLINLDELRDAIRPDTALVSIMAVNNEIGVIQPIAEIGKICREKKVFFHTDGAQAVGKIPIDVNAMNIDLMSISSHKIYGPKGIGACYVRRRPRVRIEPIISGGGQERGLRSGTLAPALVVGFGEACRIAKEELEYDLKHVKRLSERLLKGVLSIECTHQNGDPENGYPGCVNVSFAYVEGESLLMALNDVALSSGSACTSASLEPSYVLRALGNSDENAHSSIRFGIGRFTTEAEIDYVVKAVQDRVGFLRELSPLWELVQEGVDLNTIEWTQH

Experiments:
[1] = target: B3; assay: SAXS; complexes of NFS1 with ISCU, FDX2 (reduced with dithionite) and/or frataxin mixed in 1:1, 1:1:1 ratios in buffer S1 in an anaerobic chamber, after size exclusion chromatography; rigid body modelling
[2] = target: human NFS1 of the NFS1-ISD11(-His10) complex for biochemistry and SAXS (human); assay: SAXS; (NIA)2 complexes incubated with cysteine (buffer S1 with 5 mM Cys: 35 mM Tris-HCl pH 7.4, 150 mM NaCl), after size exclusion chromatography
[3] = target: T1, human ISD11-His10 (human, UniProt Q9HD34 1-91); assay: affinity purification with mass spectrometry; NFS1-ISD11(-His10) purified by Ni-Sepharose and gel filtration from E. coli grown in TB (energy-rich) medium; Orbitrap mass spectrometry of the trypsin-digested purified solution; conditions: partners not purified
T1 construct: human ISD11 (LYRM4); source: E. coli, co-expressed with NFS1, purified (Ni-Sepharose, gel filtration)
T1 sequence (Q9HD34 whole entry): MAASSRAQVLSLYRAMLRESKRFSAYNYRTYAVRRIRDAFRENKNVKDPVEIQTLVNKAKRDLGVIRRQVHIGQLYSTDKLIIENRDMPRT

[4] = target: T2, human ISD11, full length, no tag (human, UniProt Q9HD34 1-91); assay: crystal structure; (NIA)2 complex, 2.75 Å, space group R32; crystals from 100 mM MES pH 6.5, 0.3 M ammonium acetate, 20 mM calcium acetate, 20 mM CaCl2, 19% isopropanol, 12 °C; conditions: both partners purified
T2 construct: human ISD11 (LYRM4), full length, plasmid pZM4; also called LYRM4; I of (NIA)2 and (NIAU)2; source: E. coli One Shot BL21 Star (DE3), co-expressed with NFS1, co-purified (Ni-NTA)
T2 sequence (Q9HD34 whole entry): as above

[5] = target: the molecule itself; assay: SAXS; (NIA)2 complexes incubated with cysteine (buffer S1 with 5 mM Cys: 35 mM Tris-HCl pH 7.4, 150 mM NaCl), after size exclusion chromatography

Molecule: Chaetomium thermophilum CtFdx2 (reduced ferredoxin) (natural protein)
- stoichiometry N [1]: 1

- stoichiometry N [2]: 2
Molecule: human NFS1 of the NFS1-ISD11(-His10) complex for biochemistry and SAXS (enzyme)

B1: Chaetomium thermophilum CtIsu1-His6 (natural protein)
chain: MFSKTARAVSSRALASPLWSTAIPVTRPLSCQLAWPQTRQYHEKVLDHYSRPRNVGSLDKTDKSVGEGLVGAPACGDVMRLHIKVDPETKVISDVRFKTFGCGSAIASSSYLTELVRGMTLEQAAQVKNTQIAKELCLPPVKLHCSMLAEDAIKSAINNYYKKNPEARPTNLAGRGNNKLETASQSTQ
- stoichiometry N ([1]; both partners purified): 1

B2: E. coli acyl carrier protein (ACP) (natural protein, UniProt P0A6A8 1-78, looked up)
chain: MSTIEERVKKIIGEQLGVKQEEVTNNASFVEDLGADSLDTVELVMALEEEFDTEIPDEEAEKITTVQAAIDYINGHQA
modifications: Ser36-linked phosphopantetheine with attached fatty acyl chain (12 carbons modelled; 14 carbons by mass spectrometry of dissolved crystals)
notes: E. coli acyl carrier protein; the acyl chain length is said to depend on the growth medium; also called E. coli ACP; A of (NIA)2; source: endogenous E. coli protein, co-purified with NFS1-ISD11 expressed in E. coli
- binding result [3]: binds
- binding result [4]: binds

Molecule: B3
- stoichiometry N [5]: 2
